In the test the target is human Fas (CD95/APO-1) (human) (UniProt P25445). Put plainly: flow cytometric immunofluorescence on 293 cells, 2 ug/ml antibody compared with FITC-conjugated isotype control DAK-G01.
Sequence of UniProt P25445 (P25445 26-335 limits assumed): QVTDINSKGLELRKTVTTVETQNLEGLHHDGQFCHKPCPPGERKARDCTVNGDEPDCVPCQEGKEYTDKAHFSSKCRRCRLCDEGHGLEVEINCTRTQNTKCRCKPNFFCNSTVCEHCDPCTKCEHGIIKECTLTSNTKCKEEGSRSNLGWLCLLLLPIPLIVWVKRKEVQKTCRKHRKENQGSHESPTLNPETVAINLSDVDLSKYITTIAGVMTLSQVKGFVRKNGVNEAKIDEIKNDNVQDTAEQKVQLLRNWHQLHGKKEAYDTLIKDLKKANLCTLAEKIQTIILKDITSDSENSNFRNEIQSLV

In turn, “FITC-conjugated mouse IgG1 anti-human Fas receptor (clone DX2, Pharmingen) (antibody)” registered a mean Fas fluorescence, fold over nonspecific fluorescence (isotype control) of 4.9 fold.

These data come from patent US20040224389A1.
